Laboratory results published in patent publication US20260210971A1 (Pfizer, published 2026).

Experiments:
[1] = biological target: T1, endogenous TL1A of stimulated cynomolgus monkey peripheral blood (cynomolgus monkey, UniProt G7PRK8 72-251); assay: cell-based or functional assay
T1 sequence: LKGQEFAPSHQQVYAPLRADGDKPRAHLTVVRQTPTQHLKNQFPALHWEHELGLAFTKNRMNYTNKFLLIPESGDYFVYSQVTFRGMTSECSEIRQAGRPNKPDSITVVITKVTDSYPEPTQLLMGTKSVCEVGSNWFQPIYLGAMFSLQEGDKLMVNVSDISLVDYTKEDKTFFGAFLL

human TNFSF10 (TRAIL) = human TNFSF10 (TRAIL) (human, UniProt P50591 114-281); assay: plate ELISA, cytokine coated
Chain of human TNFSF10 (TRAIL) (P50591 114-281 limits assumed): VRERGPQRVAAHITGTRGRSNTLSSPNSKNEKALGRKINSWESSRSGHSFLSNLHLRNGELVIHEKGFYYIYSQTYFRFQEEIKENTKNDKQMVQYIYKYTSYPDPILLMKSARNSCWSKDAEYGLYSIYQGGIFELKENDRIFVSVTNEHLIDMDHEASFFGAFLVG
Procedure: (§1) The first 6 rows of each plate were coated with the test article cytokine, and the last two rows were coated with TL1A as a positive control. Rows 1 and 2 were duplicate rows where the test article cytokine was tested for binding to increasing concentrations of its corresponding anti-cytokine positive control antibody. […] The experiment for each cytokine was repeated three times.
(§2) Plates were incubated overnight at 4° C. After washing the plates three times (3×) with 300 μL PBST using a plate washer (model ELx405; BioTek), plates were blocked by incubating for 1 hour at room temperature with 300 μL of blocking buffer (PBST+0.5% BSA) in each well. […] Plates were then washed 5 times with PBST using the plate washer.

human TNFSF14 (LIGHT) = human TNFSF14 (LIGHT) (human, UniProt O43557 74-240, limits assumed); assay: plate ELISA, cytokine coated
Chain of human TNFSF14 (LIGHT) (O43557 74-240 limits assumed): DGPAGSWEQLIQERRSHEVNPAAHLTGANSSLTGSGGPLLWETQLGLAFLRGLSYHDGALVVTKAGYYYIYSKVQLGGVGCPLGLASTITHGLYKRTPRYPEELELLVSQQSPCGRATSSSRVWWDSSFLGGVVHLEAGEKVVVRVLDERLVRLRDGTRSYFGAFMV
Procedure: as §1, §2

human TNF-β = biological target: T2, human TNF-β (human, UniProt P01374 35-205); assay: plate ELISA, cytokine coated
T2 construct: The source sentence prints 'Human TNF-from Peprotech'
T2 sequence (looked up): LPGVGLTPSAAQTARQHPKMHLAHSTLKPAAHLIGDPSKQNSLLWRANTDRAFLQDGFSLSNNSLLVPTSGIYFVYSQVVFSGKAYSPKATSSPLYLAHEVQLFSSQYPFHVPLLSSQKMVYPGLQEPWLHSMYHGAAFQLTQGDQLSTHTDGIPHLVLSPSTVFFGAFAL
Procedure: as §1, §2

human TNF-α = biological target: T3, human TNF-α (human, UniProt P01375 77-233); assay: plate ELISA, cytokine coated
T3 construct: also called TNF alpha
T3 sequence (P01375 77-233 limits assumed): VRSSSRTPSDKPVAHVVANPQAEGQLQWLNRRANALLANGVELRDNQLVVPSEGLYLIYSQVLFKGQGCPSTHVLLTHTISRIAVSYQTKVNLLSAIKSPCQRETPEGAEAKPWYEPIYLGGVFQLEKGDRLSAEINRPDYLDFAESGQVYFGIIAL
Procedure: as §1, §2

human Lymphotoxin α2-β1 = biological target: T4, human Lymphotoxin α2-β1 (human, UniProt P01374 35-205; Q06643 49-244, limits assumed); assay: plate ELISA, cytokine coated
T4 construct: Copies read from the name α2-β1; also called Lymβ 1
T4 sequence (looked up) 1: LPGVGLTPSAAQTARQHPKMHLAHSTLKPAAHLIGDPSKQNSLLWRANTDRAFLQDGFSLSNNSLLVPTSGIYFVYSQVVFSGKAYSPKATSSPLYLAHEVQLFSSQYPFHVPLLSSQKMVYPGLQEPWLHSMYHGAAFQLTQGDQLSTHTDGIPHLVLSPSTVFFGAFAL
T4 sequence (looked up) 2: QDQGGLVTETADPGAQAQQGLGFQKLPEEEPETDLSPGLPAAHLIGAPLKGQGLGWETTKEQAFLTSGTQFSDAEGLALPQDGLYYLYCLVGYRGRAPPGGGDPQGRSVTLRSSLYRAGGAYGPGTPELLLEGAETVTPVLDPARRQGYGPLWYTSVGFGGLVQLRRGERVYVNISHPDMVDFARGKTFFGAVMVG
Procedure: as §1, §2

human Lymphotoxin α1-β2 = biological target: T5, human Lymphotoxin α1-β2 (human, UniProt P01374 35-205; Q06643 49-244, limits assumed); assay: plate ELISA, cytokine coated
T5 construct: Copies read from the name α1-β2; also called Lymβ 2
T5 sequence (looked up) 1: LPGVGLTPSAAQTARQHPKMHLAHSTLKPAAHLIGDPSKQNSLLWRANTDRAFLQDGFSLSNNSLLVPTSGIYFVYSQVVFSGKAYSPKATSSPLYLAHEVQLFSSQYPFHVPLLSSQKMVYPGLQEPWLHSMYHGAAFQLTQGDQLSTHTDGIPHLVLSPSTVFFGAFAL
T5 sequence (looked up) 2: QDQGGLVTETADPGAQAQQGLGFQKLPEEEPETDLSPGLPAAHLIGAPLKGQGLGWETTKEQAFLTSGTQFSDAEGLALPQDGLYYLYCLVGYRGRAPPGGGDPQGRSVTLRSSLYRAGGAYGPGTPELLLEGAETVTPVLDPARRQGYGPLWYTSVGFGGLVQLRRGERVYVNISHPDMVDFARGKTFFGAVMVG
Procedure: as §1, §2

[2] = biological target: T6, recombinant soluble human TL1A (human, UniProt O95150 71-251); assay: plate ELISA, TL1A coated, antibody titrated
T6 construct: Homotrimer, expressed in HEK293 and purified over HitrapNTA; no tag is described; Used biotinylated in the HTRF assay and in flow cytometry; also called rsTL1A; hTL1A
T6 sequence: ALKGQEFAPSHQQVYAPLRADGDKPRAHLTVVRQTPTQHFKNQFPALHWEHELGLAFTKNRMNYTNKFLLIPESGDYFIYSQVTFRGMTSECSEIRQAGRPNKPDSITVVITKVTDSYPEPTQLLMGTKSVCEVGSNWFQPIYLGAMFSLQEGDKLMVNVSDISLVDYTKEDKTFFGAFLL

[3] = biological target: T7, recombinant soluble murine TL1A (mouse, UniProt Q5UBV8 75-252); assay: SPR, IgG captured on anti-hIgG, TL1A injected;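 also: biacore measurement on a carboxymethylated dextran chip, double-referenced against a control surface and buffer, rates fitted to a one-to-one binding model, KD from koff over kon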
T7 construct: also called murine rsTL1A; mouse TL1A
T7 chain: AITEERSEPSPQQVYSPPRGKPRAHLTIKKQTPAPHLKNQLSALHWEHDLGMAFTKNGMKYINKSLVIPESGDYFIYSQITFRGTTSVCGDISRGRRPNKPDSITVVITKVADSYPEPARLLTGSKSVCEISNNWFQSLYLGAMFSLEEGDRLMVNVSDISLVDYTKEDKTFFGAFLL
Source text: (§3) The antibodies were captured via directly immobilized anti-human IgG (GE Healthcare) onto a carboxymethylated dextran sensor chip surface (CM5) using a Biacore T100 or T200 instrument. Anti-human IgG was immobilized through amine coupling to densities of approximately 4,000-13,000 response units (RU). […] At the end of each cycle, the entire anti-hIgG surface was regenerated by a 30-second pulse of 3M MgCl₂ followed by two consecutive 15-second pulses of PBS-NET. […] All injections were performed at 25° C. at a collection rate of 10 Hz. All sensorgrams were double referenced by using both a control surface and buffer injections. Rate constants were determined by fitting the data to a 1:1 model in Biacore T100, T200 evaluation software v1.0, or BIAevaluation software v4.1.1 and the equation KD=Kd/kₐ.
(§4) At the highest cytokine concentrations, the dissociation phase was sometimes extended to 60 minutes to achieve at least a 5% decrease in binding signal.

[4] = biological target: T8, recombinant soluble rabbit TL1A (rabbit); assay: SPR, IgG captured on anti-hIgG, TL1A injected
T8 construct: also called rabbit rsTL1A
T8 chain: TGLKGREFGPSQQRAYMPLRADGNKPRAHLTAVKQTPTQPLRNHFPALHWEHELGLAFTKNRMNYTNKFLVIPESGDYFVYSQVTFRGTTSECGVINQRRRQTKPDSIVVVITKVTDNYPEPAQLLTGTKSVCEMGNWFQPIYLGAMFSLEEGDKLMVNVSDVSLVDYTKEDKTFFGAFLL
Source text: as §3, §4

[5] = biological target: T6, recombinant soluble human TL1A; assay: plate ELISA, TL1A coated, antibody titrated; plate of TNF α
Procedure: as §1, §2

[6] = biological target: T6, recombinant soluble human TL1A; assay: plate ELISA, TL1A coated, antibody titrated; plate of TNF β
Procedure: as §1, §2

[7] = biological target: T6, recombinant soluble human TL1A; assay: plate ELISA, TL1A coated, antibody titrated; plate of Lymβ 1
Procedure: as §1, §2

[8] = biological target: T6, recombinant soluble human TL1A; assay: plate ELISA, TL1A coated, antibody titrated; plate of Lymβ 2
Procedure: as §1, §2

[9] = biological target: T6, recombinant soluble human TL1A; assay: plate ELISA, TL1A coated, antibody titrated; plate of TNFSF6; plate of TNFSF6
Procedure: as §1, §2

[10] = biological target: T1, endogenous TL1A of stimulated …; assay: MSD ligand-binding assay of 1D1 1.31-free sTL1A in plasma of stimulated cynomolgus blood; mean of n=6 monkeys
Procedure: (§5) Cynomolgus monkey peripheral blood treated with 1 ng/ml recombinant human IL-12 and 10 ng/ml recombinant human IL-18 was stimulated by immune complex coated plates for 24 hours at 37° C. […] Plasma was prepared from these samples and IFNγ was measured in the plasma samples by a quantitative immune-ligand binding assay using a Mesoscale (MSD) kit. […] Cynomolgus monkey peripheral blood treated with 1 ng/ml recombinant human IL-12 and 10 ng/ml recombinant human IL-18 was stimulated by immune complex coated plates for 24 hours at 37° C.
(§6) For IC and IL-12 and IL-18 stimulation, cynomolgus monkey blood was collected in sodium heparin coated tubes and used within one hour after the blood draw. Human IL-12 (1 ng/mL final concentration) and human IL-18 (10 ng/ml final concentration) were mixed in with blood prior to addition of 95 μL of the blood/IL-12/IL-18 mixture to each well of the IC coated plates.

[11] = biological target: T1, endogenous TL1A of stimulated …; assay: MSD ligand-binding assay of 1D1 1.31-free sTL1A in plasma of stimulated cynomolgus blood; lower end over the monkeys; lower end of range over 6 monkeys
Procedure: as §5, §6

[12] = biological target: T1, endogenous TL1A of stimulated …; assay: MSD ligand-binding assay of 1D1 1.31-free sTL1A in plasma of stimulated cynomolgus blood; upper end over the monkeys; upper end of range over 6 monkeys
Procedure: as §5, §6

B1: 1D1 1.31 (antibody, human IgG1, kappa, V domains shown)
VH: QVQLVQSGAEVKKPGASVKVSCKASGYDFTYYGISWVRQAPGQGLEWMGWISTYNGNTHYARMLQGRVTMTTDTSTRTAYMELRSLRSDDTAVYYCARENYYGSGAYRGGMDVWGQGTTVTVSS
VL: EIVLTQSPATLSLSPGERATLSCRASQSVSSYLAWYQQKPGQAPRLLIYDASNRATGIPARFSGSGSGTDFTLTISSLEPEDFAVYYCQQRSNWPWTFGQGTKVEIKR
notes: Full length human IgG1 with effector function-null mutations in the Fc, produced in CHO cells; Used biotinylated for staining of monocytes
- inhibition of IFNγ secretion in stimulated cynomolgus whole blood, IC50 [1]: 0.036 nM
- binding result (human TNFSF10 (TRAIL)): no binding (tested: 25 µg/mL highest antibody concentration)
- binding result (human TNFSF14 (LIGHT)): no binding (tested: 25 µg/mL highest antibody concentration)
- binding result (human TNF-β): no binding (tested: 25 µg/mL highest antibody concentration)
- binding result (human TNF-α): no binding (tested: 25 µg/mL highest antibody concentration)
- binding result (human Lymphotoxin α2-β1): no binding (tested: 25 µg/mL highest antibody concentration)
- binding result (human Lymphotoxin α1-β2): no binding (tested: 25 µg/mL highest antibody concentration)
- EC50 [2]: 8400 ng/mL
- Kd [3]: 1.06 nM
- koff [3]: 0.00027 s⁻¹
- kon [3]: 270000 M⁻¹ s⁻¹
- t1/2 [3]: 0.701 h
- Kd [4]: 0.361 nM
- koff [4]: 0.00011 s⁻¹
- kon [4]: 320000 M⁻¹ s⁻¹
- t1/2 [4]: 1.69 h
- EC50 [5]: 0.0082 ng/mL
- EC50 [6]: 0.0023 ng/mL
- EC50 [7]: 0.0063 ng/mL
- EC50 [8]: 0.0058 ng/mL
- EC50 [9]: 0.0085 ng/mL
- IC50 [10]: 0.022 nM
- IC50 [11]: 0.000114 nM
- IC50 [12]: 0.09 nM
